Reference: patent publication US6045793, “Recombinant ribonuclease proteins” (dated 2000)

T1: rEDN(1-21) rOnc (human; Rana pipiens)
T1 chain: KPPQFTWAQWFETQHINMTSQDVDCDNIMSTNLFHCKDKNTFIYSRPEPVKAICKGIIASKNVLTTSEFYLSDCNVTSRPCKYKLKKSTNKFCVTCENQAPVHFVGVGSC

T2: rEDN(1-21) rOncG26 (human EDN part, Rana pipiens Onc part)
T2 chain: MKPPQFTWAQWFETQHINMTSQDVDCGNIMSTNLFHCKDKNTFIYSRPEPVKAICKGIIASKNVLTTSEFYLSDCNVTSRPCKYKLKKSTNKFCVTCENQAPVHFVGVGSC

T3: Native ONCONASE (Rana pipiens, pyroglutamyl amino acid residue (<Glu-1) at the amino terminus)
T3 chain: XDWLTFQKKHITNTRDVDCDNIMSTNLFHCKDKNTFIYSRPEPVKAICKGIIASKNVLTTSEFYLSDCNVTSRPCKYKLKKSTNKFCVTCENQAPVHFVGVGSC

T4: [Met-(-1)]rOnc (Rana pipiens)
T4 chain: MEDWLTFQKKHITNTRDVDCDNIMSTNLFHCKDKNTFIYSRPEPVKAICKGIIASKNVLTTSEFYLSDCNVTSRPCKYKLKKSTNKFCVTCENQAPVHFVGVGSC

T5: recombinant human eosinophil-derived neurotoxin (human)
T5 chain: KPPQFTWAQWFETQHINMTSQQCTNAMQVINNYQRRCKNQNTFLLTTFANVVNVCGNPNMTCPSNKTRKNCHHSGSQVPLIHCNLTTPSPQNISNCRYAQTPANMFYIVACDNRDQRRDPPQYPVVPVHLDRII

B1: E6FB[Met-(-1)Ser]rOnc (scFv)
chain: DIKMTQSPSSMYASLGERVTFTCKASQDINNYLCWFQQKPGKSPKTLIYRANRLVDGVPSRFSGSGSGQDYSLTISSLEYEDMGIYYCLQYDEFPYTFGGGTKLEIKGGGGSGGGGSGGGGSEVQLQQSGTVLARPGASVKMSCKASGYTFSSYWMHWIKQRPGQGLDWIVAIDPRNSDTIYNPQFKHKAKLTAVTSTSTAYMELNSLTNEDSAVYYCTPLYYFDSWGQGTTLTVSSAKKLNDAQAPKSDMSDWLTFQKKHITNTRDVDCDNIMSTNLFHCKDKNTFIYSRPEPVKAICKGIIASKNVLTTSEFYLSDCNVTSRPCKYKLKKSTNKFCVTCENQAPVHFVGVGSC
B2: [Met-(-1)Glu]rOncFBE6 (scFv)
chain: MEDWLTFQKKHITNTRDVDCDNIMSTNLFHCKDKNTFIYSRPEPVKAICKGIIASKNVLTTSEFYLSDCNVTSRPCKYKLKKSTNKFCVTCENQAPVHFVGVGSCAKKLNDAQAPKSDDIKMTQSPSSMYASLGERVTFTCKASQDINNYLCWFQQKPGKSPKTLIYRANRLVDGVPSRFSGSGSGQDYSLTISSLEYEDMGIYYCLQYDEFPYTFGGGTKLEIKGGGGSGGGGSGGGGSEVQLQQSGTVLARPGASVKMSCKASGYTFSSYWMHWIKQRPGQGLDWIVAIDPRNSDTIYNPQFKHKAKLTAVTSTSTAYMELNSLTNEDSAVYYCTPLYYFDSWGQGTTLTVSSHHH
B3: Placental ribonuclease inhibitor (other)
chain: SLDIQSLDIQCEELSDARWAELLPLLQQCQVVRLDDCGLTEARCKDISSALRVNPALAELNLRSNELGDVGVHCVLQGLQTPSCKIQKLSLQNCCLTGAGCGVLSSTLRTLPTLQELHLSDNLLGDAGLQLLCEGLLDPQCRLEKLQLEYCSLSAASCEPLASVLRAKPDFKELTVSNNDINEAGVRVLCQGLKDSPCQLEALKLESCGVTSDNCRDLCGIVASKASLRELALGSNKLGDVGMAELCPGLLHPSSRLRTLWIWECGITAKGCGDLCRVLRAKESLKELSLAGNELGDEGARLLCETLLEPGCQLESLWVKSCSFTAACCSHFSSVLAQNRFLLELQISNNRLEDAGVRELCQGLGQPGSVLRVLWLADCDVSDSSCSSLAATLLANHSLRELDLSNNCLGDAGILQLVESVRQPGCLLEQLVLYDIYWSEEMEDRLQALEKDKPSLRVIS

Assays:
Experiment in all cases: cell-based or functional assay
[1] = molecular target: transferrin receptor on SF539 human glioma cells (human, UniProt P02786)
rEDN(1-21) rOnc = molecular target: T1, rEDN(1-21) rOnc
rEDN(1-21) rOncG26 = molecular target: T2, rEDN(1-21) rOncG26
Native ONCONASE = molecular target: T3, Native ONCONASE
[Met-(-1)]rOnc = molecular target: T4, [Met-(-1)]rOnc
[2] = molecular target: T5, recombinant human eosinophil-derived …

Binder | IC50 (nM), inhibition of protein synthesis in SF539 human glioma cells [1] [nM] | Fold Difference of IC50 (ng/ml) in rabbit reticulocyte lysate, (+)PRI against (-)PRI (rEDN(1-21) rOnc) [fold] | IC50 (ng/ml) of the RNase for inhibition of protein synthesis in rabbit reticulocyte lysate, (+)PRI (rEDN(1-21) rOnc) [ng/mL] | Fold Difference of IC50 (ng/ml) in rabbit reticulocyte lysate, (+)PRI against (-)PRI (rEDN(1-21) rOncG26) [fold] | IC50 (ng/ml) of the RNase for inhibition of protein synthesis in rabbit reticulocyte lysate, (+)PRI (rEDN(1-21) rOncG26) [ng/mL] | Fold Difference of IC50 (ng/ml) in rabbit reticulocyte lysate, (+)PRI against (-)PRI (Native ONCONASE) [fold] | IC50 (ng/ml) of the RNase for inhibition of protein synthesis in rabbit reticulocyte lysate, (+)PRI (Native ONCONASE) [ng/mL] | Fold Difference of IC50 (ng/ml) in rabbit reticulocyte lysate, (+)PRI against (-)PRI ([Met-(-1)]rOnc) [fold] | IC50 (ng/ml) of the RNase for inhibition of protein synthesis in rabbit reticulocyte lysate, (+)PRI ([Met-(-1)]rOnc) [ng/mL] | Fold Difference of IC50 (ng/ml) in rabbit reticulocyte lysate, (+)PRI against (-)PRI [2] [fold]
B1 | 0.22 |  |  |  |  |  |  |  |  | 
B2 | 0.5 |  |  |  |  |  |  |  |  | 
B3 |  | 2 | 3200 | 21 | 600 | 1.2 | 0.24 | 1.4 | 140 | > 30.7
